Experimental data from publication PMC12290929, “Analytical and Structural Evaluation of Recombinant Human Serum Albumin and Fragment F8 for Aptamer-Based Urinary Biomarker Detection”.

Columns and labels:
rHSA (E. coli) = rHSA (E. coli) (Homo sapiens, UniProt P02768 25-609); experiment: graphene oxide fluorescence recovery (Cy5 aptasensor); GO-quenched aptamer; protein 0.37-1500 ug/mL; sigmoidal, R2 > 0.99; PBS pH 7.4, graphene oxide (15 uL of 5 mg/mL) + Cy5-H8 (15 uL of 5 uM) preincubated 5 min at room temperature, 200 uL final volume, 30 min with protein in the dark, ex 630/em 670 nm; conditions: protein: recombinant; tags: His-tag; label: 5'-Cy5
rF8 (HSA fragment F8) = rF8 (HSA fragment F8) (Homo sapiens, UniProt P02768); experiment: graphene oxide fluorescence recovery (Cy5 aptasensor); GO-quenched aptamer; protein 0.37-1500 ug/mL; sigmoidal, R2 > 0.99; response comparable to full-length rHSA; PBS pH 7.4, graphene oxide (15 uL of 5 mg/mL) + Cy5-H8 (15 uL of 5 uM) preincubated 5 min at room temperature, 200 uL final volume, 30 min with protein in the dark, ex 630/em 670 nm; conditions: protein: recombinant; tags: His-tag; label: 5'-Cy5
rHSA (rice) = rHSA (rice) (Homo sapiens, UniProt P02768 25-609); experiment: graphene oxide fluorescence recovery (Cy5 aptasensor); GO-quenched aptamer; protein 0.37-1500 ug/mL; sigmoidal, R2 > 0.99; lower fluorescence than E. coli proteins; PBS pH 7.4, graphene oxide (15 uL of 5 mg/mL) + Cy5-H8 (15 uL of 5 uM) preincubated 5 min at room temperature, 200 uL final volume, 30 min with protein in the dark, ex 630/em 670 nm; conditions: protein: commercial; label: 5'-Cy5

Measured: binding result

Chain of rF8 (HSA fragment F8) (P02768 520-609): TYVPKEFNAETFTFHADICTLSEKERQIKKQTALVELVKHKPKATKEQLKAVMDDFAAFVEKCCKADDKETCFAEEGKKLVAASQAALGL
Chain of rHSA (E. coli) (P02768 25-609): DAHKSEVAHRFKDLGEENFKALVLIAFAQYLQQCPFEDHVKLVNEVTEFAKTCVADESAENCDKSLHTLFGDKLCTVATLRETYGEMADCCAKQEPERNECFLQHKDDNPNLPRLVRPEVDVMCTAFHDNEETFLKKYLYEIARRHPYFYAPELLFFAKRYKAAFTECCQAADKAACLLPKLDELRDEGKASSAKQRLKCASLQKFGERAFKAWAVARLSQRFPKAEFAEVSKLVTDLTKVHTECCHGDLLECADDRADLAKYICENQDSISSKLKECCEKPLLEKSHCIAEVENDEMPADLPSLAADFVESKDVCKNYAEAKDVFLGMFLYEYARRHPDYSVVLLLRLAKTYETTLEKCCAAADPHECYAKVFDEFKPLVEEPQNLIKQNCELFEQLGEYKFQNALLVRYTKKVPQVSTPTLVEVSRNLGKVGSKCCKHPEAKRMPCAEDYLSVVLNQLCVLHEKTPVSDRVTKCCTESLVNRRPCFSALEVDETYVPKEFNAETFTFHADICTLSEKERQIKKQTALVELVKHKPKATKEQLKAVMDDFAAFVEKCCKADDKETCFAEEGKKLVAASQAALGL
Chain of rHSA (rice) (P02768 25-609): as above

B1: H8 aptamer (ssDNA)
DNA: ATACCAGCTTATTCAATTCCCCCGGCTTTGGTTTAGAGGTAGTTGCTCATTACTTGTACGCTCCGGATGAGATAGTAAGTGCAATCT
binds: all assays above
